The target of assay [1] is T1, human αvβ8 integrin on U251 cells (human, UniProt P06756 31-1048). As to the kind of experiment: flow cytometry, Fab binding to fixed U251 cells (ΔMFI, background subtracted); EC50 unit inferred, axis Log10 [FAB] nM.
Assay [2] has as its target T1, human αvβ8 integrin on U251 cells. The assay is described as follows: flow cytometry, Fab binding to fixed U251 cells (ΔMFI, background subtracted); EC50 unit inferred, axis Log10 [Ab] (nM).
For assay [3] the target is unchanged. The assay is described as follows: cell-based or functional assay.
Assay [4] has the same target. The assay is described as follows: flow cytometry, IgG binding to U251 cells (MFI PE-A), left panel ADWA11_IgG_U251 cell binding; EC50 unit inferred, axis Log10 [mAb] nM.
The target in assay [5] is T2, mouse αvβ8 integrin on C8-S cells (mouse, UniProt P43406 31-1044; Q0VBD0 22-767).
T2 construct: Endogenous αvβ8 of C8-S mouse astrocyte cells; also called C8-S (mouse astrocyte); C8-S (mouse avb8)
T2 sequence (P43406 31-1044 limits assumed, chain 1 of 2): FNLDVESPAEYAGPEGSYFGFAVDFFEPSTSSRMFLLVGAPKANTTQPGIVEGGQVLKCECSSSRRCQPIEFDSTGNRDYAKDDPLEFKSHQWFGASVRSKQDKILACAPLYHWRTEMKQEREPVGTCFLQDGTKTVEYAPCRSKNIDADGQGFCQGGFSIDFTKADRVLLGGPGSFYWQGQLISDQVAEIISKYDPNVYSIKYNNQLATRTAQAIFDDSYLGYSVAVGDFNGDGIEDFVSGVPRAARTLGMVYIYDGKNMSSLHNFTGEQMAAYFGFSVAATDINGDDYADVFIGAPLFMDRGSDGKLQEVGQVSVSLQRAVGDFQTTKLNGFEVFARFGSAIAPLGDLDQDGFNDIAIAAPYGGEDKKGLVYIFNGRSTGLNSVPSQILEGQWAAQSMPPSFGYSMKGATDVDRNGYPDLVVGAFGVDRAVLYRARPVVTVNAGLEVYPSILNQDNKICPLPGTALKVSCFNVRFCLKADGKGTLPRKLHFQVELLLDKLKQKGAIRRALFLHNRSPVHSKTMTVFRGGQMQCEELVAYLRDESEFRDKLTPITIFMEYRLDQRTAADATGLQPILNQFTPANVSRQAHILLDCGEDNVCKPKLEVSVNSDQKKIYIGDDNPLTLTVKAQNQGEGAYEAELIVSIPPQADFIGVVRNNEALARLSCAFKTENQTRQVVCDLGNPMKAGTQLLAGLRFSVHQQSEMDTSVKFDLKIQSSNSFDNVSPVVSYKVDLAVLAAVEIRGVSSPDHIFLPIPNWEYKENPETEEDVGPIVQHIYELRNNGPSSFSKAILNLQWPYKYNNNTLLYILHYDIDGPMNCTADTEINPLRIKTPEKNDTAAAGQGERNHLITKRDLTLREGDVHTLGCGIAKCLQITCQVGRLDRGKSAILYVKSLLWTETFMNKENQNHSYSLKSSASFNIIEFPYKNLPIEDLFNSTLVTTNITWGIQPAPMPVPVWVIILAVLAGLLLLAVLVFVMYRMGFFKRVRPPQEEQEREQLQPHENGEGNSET
T2 sequence (Q0VBD0 22-767 limits assumed, chain 2 of 2): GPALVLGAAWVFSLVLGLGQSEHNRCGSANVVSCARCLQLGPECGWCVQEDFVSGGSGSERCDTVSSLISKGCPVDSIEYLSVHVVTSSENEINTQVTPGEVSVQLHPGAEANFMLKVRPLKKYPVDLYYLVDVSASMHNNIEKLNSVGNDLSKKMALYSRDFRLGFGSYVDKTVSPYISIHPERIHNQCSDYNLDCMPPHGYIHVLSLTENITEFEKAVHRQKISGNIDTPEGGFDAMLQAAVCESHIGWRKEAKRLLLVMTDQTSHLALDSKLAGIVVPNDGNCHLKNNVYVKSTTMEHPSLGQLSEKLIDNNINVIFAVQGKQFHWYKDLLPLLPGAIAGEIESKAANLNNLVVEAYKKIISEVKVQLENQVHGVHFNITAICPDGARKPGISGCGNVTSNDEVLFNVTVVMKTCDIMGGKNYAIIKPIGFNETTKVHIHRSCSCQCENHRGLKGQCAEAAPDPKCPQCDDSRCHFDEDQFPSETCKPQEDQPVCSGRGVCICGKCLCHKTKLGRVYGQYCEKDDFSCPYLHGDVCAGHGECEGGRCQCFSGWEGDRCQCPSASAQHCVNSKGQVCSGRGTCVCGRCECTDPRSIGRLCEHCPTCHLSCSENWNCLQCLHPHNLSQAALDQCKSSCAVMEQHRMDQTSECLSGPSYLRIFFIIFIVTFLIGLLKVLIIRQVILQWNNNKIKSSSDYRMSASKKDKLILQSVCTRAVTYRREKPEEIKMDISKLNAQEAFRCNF
The assay is described as follows: flow cytometry, IgG binding to C8-S cells (MFI PE-A), right panel ADWA11_IgG_C8-S cell binding; EC50 unit inferred, axis Log10 [mAb] nM. As to the method:
100,000 cells were incubated with a dilution series of the anti-αvβ8 or human IgG1_3 mut Isotype antibody for three to four hours on ice. The cells were spun down for five minutes at 300 g force. The cells were then washed three times with wash buffer (PBS+0.2% BSA) to remove excess unbound antibodies. After thorough washing, cells were incubated with Fab′2 anti-human Fc-PE (Invitrogen) or goat Fab′2 anti-mouse-APC (Jackson Labs) at 1:1000 dilution along with LIVE/DEAD fixable cell stain (Invitrogen) at 1:2000 to distinguish live cells. The whole content was incubated for 30 minutes on ice. After washing, the stained cells were analyzed on BD biosciences Fortessa flow cytometer (gated for live cells) using FlowJo analysis software. The mean fluorescence intensities (MFI) at different antibody concentrations were plotted for various antibodies.
The apparent-affinity of ADWA11 2.4 for U251 (human glioblastoma) or C8-S (mouse astrocyte) cells was also evaluated in a cell-binding assay, according to the methods as generally described herein. Briefly, cells were incubated with a serial dilution of ADWA11 2.4 for 4 hours on ice, followed by detection on bound antibody with an anti-human-PE secondary antibody, and analyzed by flow cytometry.

Assay [6] deals with T3, recombinant human αvβ3 integrin (human, UniProt P06756 31-992; P05106 27-718).
T3 construct: Used in ELISA and immobilised on the Biacore chip; construct not described; also called hαvβ3; AVB3
T3 sequence (P06756 31-992 limits assumed, chain 1 of 2): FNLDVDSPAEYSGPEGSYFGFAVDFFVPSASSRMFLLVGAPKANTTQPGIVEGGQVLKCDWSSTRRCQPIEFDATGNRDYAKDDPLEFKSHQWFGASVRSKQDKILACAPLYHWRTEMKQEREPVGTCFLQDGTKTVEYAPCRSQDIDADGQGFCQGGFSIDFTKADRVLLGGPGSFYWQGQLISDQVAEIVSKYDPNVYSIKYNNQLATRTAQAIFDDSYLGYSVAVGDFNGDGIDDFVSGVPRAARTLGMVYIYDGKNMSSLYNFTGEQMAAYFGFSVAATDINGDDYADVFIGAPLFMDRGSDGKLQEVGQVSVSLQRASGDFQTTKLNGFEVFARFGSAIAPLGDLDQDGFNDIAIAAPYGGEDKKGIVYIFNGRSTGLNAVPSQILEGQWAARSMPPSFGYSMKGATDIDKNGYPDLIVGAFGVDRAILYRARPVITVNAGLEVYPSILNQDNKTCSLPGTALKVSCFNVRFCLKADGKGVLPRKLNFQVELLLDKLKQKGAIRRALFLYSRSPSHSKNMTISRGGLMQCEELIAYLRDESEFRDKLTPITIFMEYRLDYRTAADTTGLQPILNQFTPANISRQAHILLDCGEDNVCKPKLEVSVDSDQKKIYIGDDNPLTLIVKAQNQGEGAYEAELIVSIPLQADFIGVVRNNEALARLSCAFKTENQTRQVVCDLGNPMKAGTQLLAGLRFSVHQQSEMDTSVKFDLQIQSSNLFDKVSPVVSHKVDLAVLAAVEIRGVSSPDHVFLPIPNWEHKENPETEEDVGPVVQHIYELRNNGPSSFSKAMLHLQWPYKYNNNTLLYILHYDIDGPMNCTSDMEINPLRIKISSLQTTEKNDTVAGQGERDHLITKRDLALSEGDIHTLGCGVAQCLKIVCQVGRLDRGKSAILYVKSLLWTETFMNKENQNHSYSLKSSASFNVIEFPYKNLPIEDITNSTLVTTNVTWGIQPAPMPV
T3 sequence (P05106 27-718 limits assumed, chain 2 of 2): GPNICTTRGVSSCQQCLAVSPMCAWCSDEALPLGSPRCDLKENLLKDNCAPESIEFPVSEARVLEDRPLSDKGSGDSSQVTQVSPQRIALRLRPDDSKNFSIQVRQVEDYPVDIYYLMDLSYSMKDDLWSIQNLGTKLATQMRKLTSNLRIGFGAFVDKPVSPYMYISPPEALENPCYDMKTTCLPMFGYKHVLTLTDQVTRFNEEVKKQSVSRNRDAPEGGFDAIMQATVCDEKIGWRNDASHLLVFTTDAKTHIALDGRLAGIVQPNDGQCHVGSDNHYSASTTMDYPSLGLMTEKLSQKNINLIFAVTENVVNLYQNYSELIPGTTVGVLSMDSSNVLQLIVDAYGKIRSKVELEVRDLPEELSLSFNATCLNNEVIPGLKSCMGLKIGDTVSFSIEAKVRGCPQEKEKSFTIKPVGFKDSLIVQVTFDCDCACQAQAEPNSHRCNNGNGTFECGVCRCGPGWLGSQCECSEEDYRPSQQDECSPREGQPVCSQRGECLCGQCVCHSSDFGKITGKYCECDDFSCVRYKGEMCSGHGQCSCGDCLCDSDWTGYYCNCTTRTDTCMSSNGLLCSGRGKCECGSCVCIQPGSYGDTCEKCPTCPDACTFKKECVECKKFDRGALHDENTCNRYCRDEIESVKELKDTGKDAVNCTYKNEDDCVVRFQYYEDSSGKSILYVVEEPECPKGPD
As to the kind of experiment: Biacore, recombinant human αvβ3 immobilised on the chip; concentration not shown. As to the method:
(§1) To evaluate the specificity of ADWA11 2.4, recombinant human αvβ6 and αvβ3 were immobilized on a Biacore chip and binding of the parental murine and humanized mAb variant of ADWA11 2.4 was determined.

Assay [7] addresses T4, recombinant human αvβ6 integrin (human, UniProt P06756 31-992; P18564 22-707).
T4 construct: Used in ELISA and immobilised on the Biacore chip; construct not described; also called hαvβ6; AVB6
The assay is described as follows: Biacore, recombinant human αvβ6 immobilised on the chip; concentration not shown. Here is the method:
as §1

The target of assay [8] is T1, human αvβ8 integrin on U251 cells. The assay is described as follows: flow cytometry, Fab binding to fixed U251 cells (MFI APC-A); EC50 unit inferred, axis Log10 [Ab] (nM).

T4 sequence (P06756 31-992 limits assumed, chain 1 of 2): as the sequence (P06756 31-992 limits assumed, chain 1 of 2) above
T4 sequence (P18564 22-707 limits assumed, chain 2 of 2): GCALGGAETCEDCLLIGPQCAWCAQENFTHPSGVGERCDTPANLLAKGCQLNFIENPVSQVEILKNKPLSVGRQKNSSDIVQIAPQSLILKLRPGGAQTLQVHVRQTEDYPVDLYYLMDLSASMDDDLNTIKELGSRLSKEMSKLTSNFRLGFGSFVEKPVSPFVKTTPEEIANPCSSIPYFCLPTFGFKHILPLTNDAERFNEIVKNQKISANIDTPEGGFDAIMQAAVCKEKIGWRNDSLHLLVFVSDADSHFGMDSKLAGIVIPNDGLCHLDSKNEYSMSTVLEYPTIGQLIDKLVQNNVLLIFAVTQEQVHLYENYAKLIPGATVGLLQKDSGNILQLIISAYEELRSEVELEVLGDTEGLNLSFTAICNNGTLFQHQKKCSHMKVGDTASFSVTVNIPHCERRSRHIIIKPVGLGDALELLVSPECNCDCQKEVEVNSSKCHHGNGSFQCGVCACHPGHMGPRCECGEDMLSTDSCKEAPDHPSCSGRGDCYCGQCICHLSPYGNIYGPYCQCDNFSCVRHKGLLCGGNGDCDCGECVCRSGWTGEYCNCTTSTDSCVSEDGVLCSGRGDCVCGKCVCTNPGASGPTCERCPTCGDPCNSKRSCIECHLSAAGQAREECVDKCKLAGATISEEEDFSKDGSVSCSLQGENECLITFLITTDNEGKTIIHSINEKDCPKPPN

B1: ADWA11 VH05-2/VK01 Fab with M94Q in VL (Fab, V domains shown)
VH: EVQLVESGGGLVQPGGSLRLSCAASGFNIKDYYMNWVRQAPGKGLEWVGWIDPDQGNTIYEPKFQGRFTISADTSKNSAYLQMNSLRAEDTAVYYCARRLLMDYWGQGTLVTVSS
VL: DIQMTQSPSSLSASVGDRVTITCRSTKSLLHFNGNTYLFWYQQKPGKAPKRLIYYMSNLASGVPSRFSGSGSGTDFTLTISSLQPEDFATYYCQQSLEYPFTFGQGTKVEIK
B1: in assay [1], the half-maximal effective concentration (EC50) was determined as 0.641 nM.

B2: ADWA11 VH05-2/VK01 Fab with M56A in VL (Fab, V domains shown)
VH: EVQLVESGGGLVQPGGSLRLSCAASGFNIKDYYMNWVRQAPGKGLEWVGWIDPDQGNTIYEPKFQGRFTISADTSKNSAYLQMNSLRAEDTAVYYCARRLLMDYWGQGTLVTVSS
VL: DIQMTQSPSSLSASVGDRVTITCRSTKSLLHFNGNTYLFWYQQKPGKAPKRLIYYASNLASGVPSRFSGSGSGTDFTLTISSLQPEDFATYYCMQSLEYPFTFGQGTKVEIK
Consider B2, for which, in assay [2], the EC50 was 0.205 nM.

B3: ADWA11 VH03/VK02 IgG (antibody, V domains shown)
VH: EVQLVESGGGLVQPGGSLRLSCAASGFNIKDYYMNWVRQAPGKGLEWVGWIDPDNGNTIYDPKFQGRFTISADNAKNSAYLQMNSLRAEDTAVYYCARRLLMDYWGQGTLVTVSS
VL: DIQMTQSPSSLSASVGDRVTITCRSTKSLLHFNGNTYLFWFQQKPGKAPKRLIYYMSNLASGVPSRFSGSGSGTDFTLTISSLQPEDFATYYCMQSLEYPFTFGQGTKVEIK
Consider B3, for which, in assay [3], the “IgG Potency TGFB Assay IC50 (pM)” value was found to be 223 pM.

B4: ADWA11 VH05-2/VK01 Fab with N58S in VL (Fab, V domains shown)
VH: EVQLVESGGGLVQPGGSLRLSCAASGFNIKDYYMNWVRQAPGKGLEWVGWIDPDQGNTIYEPKFQGRFTISADTSKNSAYLQMNSLRAEDTAVYYCARRLLMDYWGQGTLVTVSS
VL: DIQMTQSPSSLSASVGDRVTITCRSTKSLLHFNGNTYLFWYQQKPGKAPKRLIYYMSSLASGVPSRFSGSGSGTDFTLTISSLQPEDFATYYCMQSLEYPFTFGQGTKVEIK
B4 had a half-maximal effective concentration (EC50) in assay [2] of 0.229 nM.

B5: ADWA11 VH01/VK01 IgG (antibody, V domains shown)
VH: EVQLVESGGGLVQPGGSLRLSCAASGFNIKDYYMNWVRQAPGKGLEWVAWIDPDNGNTIYDPKFQGRFTISRDNAKNSLYLQMNSLRAEDTAVYYCARRLLMDYWGQGTLVTVSS
VL: DIQMTQSPSSLSASVGDRVTITCRSTKSLLHFNGNTYLFWYQQKPGKAPKRLIYYMSNLASGVPSRFSGSGSGTDFTLTISSLQPEDFATYYCMQSLEYPFTFGQGTKVEIK
As for B5, in assay [3], the “IgG Potency TGFB Assay IC50 (pM)” value came out at 8470 pM.

B6: ADWA11 VH05-2/VK01(2.1) antibody (antibody, V domains shown)
VH: EVQLVESGGGLVQPGGSLRLSCAASGFNIKDYYMNWVRQAPGKGLEWVGWIDPDQGNTIYEPKFQGRFTISADTSKNSAYLQMNSLRAEDTAVYYCARRLLMDYWGQGTLVTVSS
VL: DIQMTQSPSSLSASVGDRVTITCRSTKSLSHFNGNTYLFWYQQKPGKAPKRLIYYMSNLASGVPSRFSGSGSGTDFTLTISSLQPEDFATYYCQQSLEYPFTFGGGTKVEIK
notes: also called ADWA11 2.1
Turning to B6, the EC50 came out at 0.1 nM in assay [4] and 0.106 nM in assay [5].

B7: ADWA11 VH02/VK01 IgG (antibody, V domains shown)
VH: EVQLVESGGGLVQPGGSLRLSCAASGFNIKDYYMNWVRQAPGKGLEWVAWIDPDNGNTIYDPKFQGRFTISADNAKNSLYLQMNSLRAEDTAVYYCARRLLMDYWGQGTLVTVSS
VL: DIQMTQSPSSLSASVGDRVTITCRSTKSLLHFNGNTYLFWYQQKPGKAPKRLIYYMSNLASGVPSRFSGSGSGTDFTLTISSLQPEDFATYYCMQSLEYPFTFGQGTKVEIK
For the molecule B7, in assay [3], the “IgG Potency TGFB Assay IC50 (pM)” value turned out to be 1760 pM.

B8: ADWA11 VH05-2/VK01 IgG (antibody, V domains shown)
VH: EVQLVESGGGLVQPGGSLRLSCAASGFNIKDYYMNWVRQAPGKGLEWVGWIDPDQGNTIYEPKFQGRFTISADTSKNSAYLQMNSLRAEDTAVYYCARRLLMDYWGQGTLVTVSS
VL: DIQMTQSPSSLSASVGDRVTITCRSTKSLLHFNGNTYLFWYQQKPGKAPKRLIYYMSNLASGVPSRFSGSGSGTDFTLTISSLQPEDFATYYCMQSLEYPFTFGQGTKVEIK
notes: also called ADWA11 5-2_1; VH05/VK01-N55Q-D61E
With B8, the half-maximal effective concentration (EC50) in assay [4] was 0.0711 nM; in assay [5], 0.0591 nM. Besides, the binding result in assay [6] and in assay [7] was “no binding” throughout.

B9: ADWA11 VH03/VK01 IgG (antibody, V domains shown)
VH: EVQLVESGGGLVQPGGSLRLSCAASGFNIKDYYMNWVRQAPGKGLEWVGWIDPDNGNTIYDPKFQGRFTISADNAKNSAYLQMNSLRAEDTAVYYCARRLLMDYWGQGTLVTVSS
VL: DIQMTQSPSSLSASVGDRVTITCRSTKSLLHFNGNTYLFWYQQKPGKAPKRLIYYMSNLASGVPSRFSGSGSGTDFTLTISSLQPEDFATYYCMQSLEYPFTFGQGTKVEIK
Take B9: the “IgG Potency TGFB Assay IC50 (pM)” value in assay [3] amounted to 138 pM.

B10: ADWA11 VH05-2/VK01 Fab with Q105G in VL (Fab, V domains shown)
VH: EVQLVESGGGLVQPGGSLRLSCAASGFNIKDYYMNWVRQAPGKGLEWVGWIDPDQGNTIYEPKFQGRFTISADTSKNSAYLQMNSLRAEDTAVYYCARRLLMDYWGQGTLVTVSS
VL: DIQMTQSPSSLSASVGDRVTITCRSTKSLLHFNGNTYLFWYQQKPGKAPKRLIYYMSNLASGVPSRFSGSGSGTDFTLTISSLQPEDFATYYCMQSLEYPFTFGGGTKVEIK
Molecule B10 displayed an EC50 in assay [1] of 0.486 nM.

B11: ADWA11 VH05-2/VK01 Fab (parental) (Fab, V domains shown)
VH: EVQLVESGGGLVQPGGSLRLSCAASGFNIKDYYMNWVRQAPGKGLEWVGWIDPDQGNTIYEPKFQGRFTISADTSKNSAYLQMNSLRAEDTAVYYCARRLLMDYWGQGTLVTVSS
VL: DIQMTQSPSSLSASVGDRVTITCRSTKSLLHFNGNTYLFWYQQKPGKAPKRLIYYMSNLASGVPSRFSGSGSGTDFTLTISSLQPEDFATYYCMQSLEYPFTFGQGTKVEIK
As to B11, the EC50 was 0.613 nM in assay [1], 0.198 nM in assay [8] and 0.224 nM in assay [2].

B12: ADWA11 VH05-1/VK01 IgG (antibody, V domains shown)
VH: EVQLVESGGGLVQPGGSLRLSCAASGFNIKDYYMNWVRQAPGKGLEWVGWIDPDNGNTIYEPKFQGRFTISADTSKNSAYLQMNSLRAEDTAVYYCARRLLMDYWGQGTLVTVSS
VL: DIQMTQSPSSLSASVGDRVTITCRSTKSLLHFNGNTYLFWYQQKPGKAPKRLIYYMSNLASGVPSRFSGSGSGTDFTLTISSLQPEDFATYYCMQSLEYPFTFGQGTKVEIK
notes: VH05 with D61E; also called ADWA11 5-1_1; VH05/VK01-D61E
With B12, the binding result in assay [6] and in assay [7] was “no binding” in each case.

The values above are taken from patent US20200079855A1 (Pfizer, published 2020).
